Experimental findings from US20250230251A1 (Bristol-Myers Squibb, published 2025) are described below.

Substitutions are numbered along the chain they refer to.

The target of test [1] is T1, huIL-18Rβ-HisAvi (human, UniProt O95256 20-356, biotinylated in the Octet blocking assay).
T1 construct: Soluble analyte in all SPR runs; captured on streptavidin sensors in the Octet assay; also called human IL-18Rβ; human IL-18Rβ-Avi-His
T1 sequence: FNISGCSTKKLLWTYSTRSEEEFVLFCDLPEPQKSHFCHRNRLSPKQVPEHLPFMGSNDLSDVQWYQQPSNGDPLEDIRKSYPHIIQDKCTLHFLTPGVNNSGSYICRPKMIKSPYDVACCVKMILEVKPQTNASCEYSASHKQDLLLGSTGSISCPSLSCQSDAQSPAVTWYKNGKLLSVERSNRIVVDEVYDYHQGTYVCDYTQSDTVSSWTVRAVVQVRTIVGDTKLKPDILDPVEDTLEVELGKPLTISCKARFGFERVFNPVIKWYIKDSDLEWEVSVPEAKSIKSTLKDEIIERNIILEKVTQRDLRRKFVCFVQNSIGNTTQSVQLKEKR
Briefly: SPR Biacore T200, mAb captured on anti-human Fc, huIL-18Rβ-HisAvi as analyte, PBST pH 5.5, 37 °C, 1:1 Binding fit. On the technique in general: Surface plasmon resonance follows binding to a sensor surface in real time, without labels.

Test [2] concerns the target T1, huIL-18Rβ-HisAvi. The test can be described thus: SPR Biacore T200, mAb captured on anti-human Fc, huIL-18Rβ-HisAvi as analyte, PBST pH 6.0, 37 °C, 1:1 Binding fit.
The target of test [3] is T2, human IL-18Rβ on cells (human, UniProt O95256 20-599).
T2 sequence: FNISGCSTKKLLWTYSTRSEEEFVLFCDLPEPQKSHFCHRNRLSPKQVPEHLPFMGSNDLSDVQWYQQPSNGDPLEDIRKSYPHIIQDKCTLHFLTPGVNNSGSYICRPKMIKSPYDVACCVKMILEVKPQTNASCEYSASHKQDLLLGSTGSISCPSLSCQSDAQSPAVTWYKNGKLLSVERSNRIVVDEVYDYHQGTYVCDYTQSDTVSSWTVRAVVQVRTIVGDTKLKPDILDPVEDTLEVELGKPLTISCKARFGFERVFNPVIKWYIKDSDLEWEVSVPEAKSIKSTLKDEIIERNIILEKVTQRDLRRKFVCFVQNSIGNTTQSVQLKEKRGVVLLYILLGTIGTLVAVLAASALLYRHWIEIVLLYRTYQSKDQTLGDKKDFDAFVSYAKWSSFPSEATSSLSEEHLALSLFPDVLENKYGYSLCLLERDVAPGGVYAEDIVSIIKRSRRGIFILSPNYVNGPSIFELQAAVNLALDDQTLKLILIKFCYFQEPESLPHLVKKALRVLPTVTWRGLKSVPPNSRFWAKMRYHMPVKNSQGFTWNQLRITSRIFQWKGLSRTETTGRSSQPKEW
The test can be described thus: cell-based or functional assay.

For test [4], the target named is T2, human IL-18Rβ on cells. Briefly: cell-based or functional assay. This is another data set of the same source.
In test [5] the target is T3, cynomolgus monkey IL-18Rβ on cells (cynomolgus monkey, UniProt A0A7N9D6S0 20-598).
T3 sequence: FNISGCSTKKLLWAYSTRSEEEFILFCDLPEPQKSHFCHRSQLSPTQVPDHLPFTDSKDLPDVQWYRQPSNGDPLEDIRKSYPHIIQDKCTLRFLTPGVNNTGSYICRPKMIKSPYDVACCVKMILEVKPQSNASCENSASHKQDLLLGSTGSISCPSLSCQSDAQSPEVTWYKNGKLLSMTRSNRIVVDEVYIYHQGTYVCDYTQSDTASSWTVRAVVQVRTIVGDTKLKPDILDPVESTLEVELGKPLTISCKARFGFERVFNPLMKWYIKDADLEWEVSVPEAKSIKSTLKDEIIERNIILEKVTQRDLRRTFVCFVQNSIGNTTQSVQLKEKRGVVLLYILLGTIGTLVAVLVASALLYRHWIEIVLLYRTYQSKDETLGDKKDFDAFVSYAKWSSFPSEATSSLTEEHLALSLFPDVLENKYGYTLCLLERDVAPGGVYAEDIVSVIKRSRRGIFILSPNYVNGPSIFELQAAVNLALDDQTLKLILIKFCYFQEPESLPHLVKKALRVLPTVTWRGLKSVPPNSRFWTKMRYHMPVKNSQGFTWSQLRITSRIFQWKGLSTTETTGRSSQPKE
The test can be described thus: cell-based or functional assay.

The target in test [6] is T1, huIL-18Rβ-HisAvi. Briefly: SPR T200, pH 7; sample 4 w 4C.
Test [7] addresses T1, huIL-18Rβ-HisAvi. Briefly: SPR T200, pH 7; sample 2 w 40C.
The target of test [8] is T1, huIL-18Rβ-HisAvi. The test can be described thus: SPR T200, pH 7; sample 4 w 40C.
The target in test [9] is T1, huIL-18Rβ-HisAvi. The test can be described thus: SPR T200, pH 7; control.

B1: P20 (antibody, human IgG1, kappa)
heavy: QVQLQQSGPGLVKPSETLSLTCTVSGGSINNYYWSWIRQPPGKGLEWIGYIFYSGTTNYNPSLKSRVTISVDTSKNQFSLKLSSVTAADTAVYYCARDVGIAARNSYYYVMDVWGQGTTVTVSSASTKGPSVFPLAPSSKSTSGGTAALGCLVKDYFPEPVTVSWNSGALTSGVHTFPAVLQSSGLYSLSSVVTVPSSSLGTQTYICNVNHKPSNTKVDKRVEPKSCDKTHTCPPCPAPEAEGAPSVFLFPPKPKDTLMISRTPEVTCVVVDVSHEDPEVKFNWYVDGVEVHNAKTKPREEQYNSTYRVVSVLTVLHQDWLNGKEYKCKVSNKALPAPIEKTISKAKGQPREPQVYTLPPSREEMTKNQVSLTCLVKGFYPSDIAVEWESNGQPENNYKTTPPVLDSDGSFFLYSKLTVDKSRWQQGNVFSCSVMHEALHNHYTQKSLSLSPG
light: AIQLTQSPSSLSASVGDRVTITCRASQGISSALAWYQQKPGKAPKFLIYDASSLESGVPSRFSGSGSGTDFTLTISSLQPEDFATYYCQQFNSYPITFGQGTRLEIKRTVAAPSVFIFPPSDEQLKSGTASVVCLLNNFYPREAKVQWKVDNALQSGNSQESVTEQDSKDSTYSLSSTLTLSKADYEKHKVYACEVTHQGLSSPVTKSFNRGEC
notes: Human IgG
As to B1, in the test with huIL-18Rβ-HisAvi [1], the “apparent Kd (pooled screen)” value stood at 2.56 nM, the “apparent koff (pooled screen)” value stood at 0.000282 s⁻¹ and the “apparent kon (pooled screen)” value is 110000 M⁻¹ s⁻¹. For the same molecule, in the test with huIL-18Rβ-HisAvi [2], the “apparent Kd (pooled screen)” value was 2.35 nM, the “apparent koff (pooled screen)” value was 0.000329 s⁻¹ and the “apparent kon (pooled screen)” value came out at 140000 M⁻¹ s⁻¹.

B2: P20-V1 (antibody, human IgG1, kappa, V domains shown)
VH: QVQLQESGPGLVKPSETLSLTCTVSGGSINNYYWSWIRQPPGKGLEWIGYIFYSGTTNYNPSLKSRVTISVDTSKNQFSLKLSSVTAADTAVYYCARDVGIAARNSYYYVMDVWGQGTTVTVSS
VL: AIQLTQSPSSLSASVGDRVTITCRASQGISSALAWYQQKPGKAPKFLIYEASSLESGVPSRFSGSGSGTDFTLTISSLQPEDFATYYCQQFNSYPITFGQGTRLEIKR
notes: Variant of P20
As a reminder, the Kd is the concentration at which binding is half-saturated. Usually koff stands for the first-order rate constant of dissociation. Usually kon stands for the second-order rate constant of association. Take B2: the “Average IC50, LPS+IL-12 dependent IFNg production, human whole blood” value with human IL-18Rβ on cells [3] came to 1.04 nM. In the test with human IL-18Rβ on cells [4], the “IC50, IFNg, human whole blood LPS+IL-12, Average” value is 1.6 nM; the “IC50, IFNg, human whole blood LPS+IL-12, donor C163” value was found to be 1.1 nM; the “IC50, IFNg, human whole blood LPS+IL-12, donor C175” value amounted to 1.48 nM; the “IC50, IFNg, human whole blood LPS+IL-12, donor C177” value amounted to 0.47 nM. In addition, in the test with human IL-18Rβ on cells [4], the “IC50, IFNg, human whole blood LPS+IL-12, donor C198” value came out at 4.9 nM; the “IC50, IFNg, human whole blood LPS+IL-12, donor C200” value was 2.55 nM; the “IC50, IFNg, human whole blood LPS+IL-12, donor C205” value is 1.56 nM; the “IC50, IFNg, human whole blood LPS+IL-12, donor C215” value is 1.54 nM. For the same molecule, in the test with human IL-18Rβ on cells [4], the “IC50, IFNg, human whole blood LPS+IL-12, donor C223” value came out at 0.83 nM; the “IC50, IFNg, human whole blood LPS+IL-12, donor C229” value came out at 1.3 nM; the “IC50, IFNg, human whole blood LPS+IL-12, donor C238” value came to 0.57 nM; the “IC50, IFNg, human whole blood LPS+IL-12, donor C241” value worked out at 1.2 nM. For the same molecule, in the test with human IL-18Rβ on cells [4], the “IC50, IFNg, human whole blood LPS+IL-12, donor C245” value came out at 1.22 nM; the “IC50, IFNg, human whole blood LPS+IL-12, donor C251” value was determined as 1.7 nM; the “IC50, IFNg, human whole blood LPS+IL-12, donor C256” value is 1.38 nM; the “IC50, IFNg, human whole blood LPS+IL-12, donor C257” value came to 2.22 nM. For the same molecule, in test [5], the “IC50, IFNg, cyno whole blood IL-18+IL-12, Average” value is 4.3 nM; the “IC50, IFNg, cyno whole blood IL-18+IL-12, donor B7619 (f)” value turned out to be 5.1 nM; the “IC50, IFNg, cyno whole blood IL-18+IL-12, donor B8476 (m)” value was found to be 3.3 nM; the “IC50, IFNg, cyno whole blood IL-18+IL-12, donor B9301 (f)” value came out at 4.7 nM. Further, in test [5], the “IC50, IFNg, cyno whole blood IL-18+IL-12, donor B9313 (m)” value came out at 2.4 nM; the “IC50, IFNg, cyno whole blood IL-18+IL-12, donor B9447 (m)” value was 5.1 nM; the “IC50, IFNg, cyno whole blood IL-18+IL-12, donor B9496 (m)” value is 1.9 nM; the “IC50, IFNg, cyno whole blood IL-18+IL-12, donor B21333 (f)” value was found to be 1.8 nM. In addition, in test [5], the “IC50, IFNg, cyno whole blood IL-18+IL-12, donor B21374 (f)” value worked out at 2.5 nM; the “IC50, IFNg, cyno whole blood IL-18+IL-12, donor B21394 (f)” value is 6 nM; the “IC50, IFNg, cyno whole blood IL-18+IL-12, donor B21411 (f)” value turned out to be 5.1 nM; the “IC50, IFNg, cyno whole blood IL-18+IL-12, donor B21435 (f)” value is 10.5 nM. In test [5], the “IC50, IFNg, cyno whole blood IL-18+IL-12, donor B21438 (f)” value came out at 2.2 nM; the “IC50, IFNg, cyno whole blood IL-18+IL-12, donor B22017 (f)” value stood at 5.7 nM; the “IC50, IFNg, cyno whole blood IL-18+IL-12, donor B22187 (m)” value was determined as 3.9 nM. In the test with huIL-18Rβ-HisAvi [6], binding was characterised by a dissociation constant (Kd) of 0.2 nM, the koff amounted to 5.7e-05 s⁻¹ and the kon was determined as 280000 M⁻¹ s⁻¹. For the same molecule, in the test with huIL-18Rβ-HisAvi [7], the Kd came out at 0.13 nM, the koff came to 3.7e-05 s⁻¹ and the kon amounted to 290000 M⁻¹ s⁻¹. Also, in the test with huIL-18Rβ-HisAvi [8], binding was characterised by a dissociation constant (Kd) of 0.5 nM, the koff was determined as 0.00014 s⁻¹ and the kon worked out at 290000 M⁻¹ s⁻¹.

B3: P21 (antibody, human IgG1, kappa, V domains shown)
VH: QVQLQQSGPGLVKPSETLSLTCTVSGGSISNYYWTWIRQPPGKGLEWIGYISDSGSTNYNPSLKSRVTISVDTSKNQFSLKLSSVTAADTAVYYCARETIVVRGFYFYVMDVWGQGTTVTVSS
VL: B2 VL with K39R, F46L, E50D, S53N, L54W, I96W, R103K, L104V
notes: Human IgG
As to B3, in the test with huIL-18Rβ-HisAvi [9], the Kd was found to be 0.2 nM, the koff was determined as 7e-05 s⁻¹ and the kon worked out at 350000 M⁻¹ s⁻¹.
